This note sets out measurements from US20210317225A1 (Genmab, published 2021).

T1: Human CD137 shuffle 4 (amino acids 89-114 replaced by wild boar CD137) (human, amino acids 89-114 from wild boar, UniProt Q07011 24-255)
T1 construct: also called shuffle construct 4
T1 chain: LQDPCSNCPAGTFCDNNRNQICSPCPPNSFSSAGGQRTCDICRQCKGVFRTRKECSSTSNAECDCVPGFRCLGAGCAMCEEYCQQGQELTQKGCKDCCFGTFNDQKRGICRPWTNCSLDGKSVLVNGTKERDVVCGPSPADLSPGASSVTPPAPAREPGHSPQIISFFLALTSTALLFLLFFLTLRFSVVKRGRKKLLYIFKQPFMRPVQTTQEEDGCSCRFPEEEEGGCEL

T2: Human CD137 shuffle 5 (amino acids 48-88 replaced by African elephant CD137) (human, amino acids 48-88 from African …, UniProt Q07011 24-255)
T2 construct: also called shuffle construct 5
T2 chain: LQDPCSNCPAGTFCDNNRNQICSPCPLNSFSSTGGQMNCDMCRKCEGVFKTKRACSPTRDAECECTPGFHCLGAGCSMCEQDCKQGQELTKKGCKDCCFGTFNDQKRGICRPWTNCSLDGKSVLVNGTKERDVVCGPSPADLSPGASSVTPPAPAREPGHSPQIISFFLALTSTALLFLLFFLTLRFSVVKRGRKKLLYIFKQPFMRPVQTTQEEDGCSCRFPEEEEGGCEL

T3: Human CD137 shuffle 1 (amino acids 162-186 replaced by wild boar CD137) (human, amino acids 162-186 from wild …, UniProt Q07011 24-255)
T3 construct: also called shuffle construct 1
T3 chain: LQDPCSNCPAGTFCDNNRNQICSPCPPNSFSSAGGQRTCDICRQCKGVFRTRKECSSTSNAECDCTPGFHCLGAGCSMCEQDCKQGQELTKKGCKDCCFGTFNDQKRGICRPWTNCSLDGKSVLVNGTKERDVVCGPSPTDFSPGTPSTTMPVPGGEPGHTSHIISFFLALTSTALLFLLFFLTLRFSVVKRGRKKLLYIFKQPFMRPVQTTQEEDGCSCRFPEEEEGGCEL

T4: Human CD137 shuffle 2 (amino acids 139-161 replaced by wild boar CD137) (human, amino acids 139-161 from wild …, UniProt Q07011 24-255)
T4 construct: also called shuffle construct 2
T4 chain: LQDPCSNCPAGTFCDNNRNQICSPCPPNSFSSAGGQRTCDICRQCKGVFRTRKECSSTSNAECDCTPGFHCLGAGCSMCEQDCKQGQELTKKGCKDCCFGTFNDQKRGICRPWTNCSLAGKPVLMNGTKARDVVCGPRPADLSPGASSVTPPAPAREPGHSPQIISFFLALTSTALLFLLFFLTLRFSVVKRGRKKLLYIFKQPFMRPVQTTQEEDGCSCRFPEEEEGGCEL

T5: Human CD137 shuffle 3 (amino acids 115-138 replaced by wild boar CD137) (human, amino acids 115-138 from wild …, UniProt Q07011 24-255)
T5 construct: also called shuffle construct 3
T5 chain: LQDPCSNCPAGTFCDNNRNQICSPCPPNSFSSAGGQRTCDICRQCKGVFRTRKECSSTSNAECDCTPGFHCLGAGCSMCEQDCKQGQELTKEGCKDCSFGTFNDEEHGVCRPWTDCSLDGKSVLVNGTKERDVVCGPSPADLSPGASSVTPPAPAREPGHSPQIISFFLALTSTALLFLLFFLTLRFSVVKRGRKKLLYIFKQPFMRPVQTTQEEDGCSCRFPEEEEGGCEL

B1: CD137 antibody clone 003 (rabbit) (antibody, human IgG1, kappa, V domains shown)
VH: QSVEESGGRLVTPGTPLTLTCTASGFTISSYHMIWVRQAPGEGLEWIGDIYGGTATTDYASWAKGRFTISKTSTTVDLKMTSLTTEDTATYFCARARYSGGSYANYVFNLWGQGTLVTVSS
VL: DIVMTQTPASVEAAVGGTVTIKCQASQSISSYLAWYQQKPGQPPKLLIYRTSTLESGVPSRFKGSGSGTEFTLTISDLESADAATYYCQGYDWSSSNRYDNTFGGGTEVVVKR
notes: also called Clone 3; CD137 clone 003
B2: CD137 antibody clone 007 (rabbit) (antibody, human IgG1, kappa, V domains shown)
VH: QSLEESGGRLVTPGTPLTLTCTASGFSLSSYDVSWVRQAPGKGLEYIGFIGSDGSAHYATWVKGRFTISKTSTTVDLKITSPTTEDTATYFCARDWNDYWAHDLWGPGTLVTVSS
VL: AQVLTQTTSPVSAAVGGTVTINCQASQIVTSKSALSWYQQKPGQPPRLLIYKASTLASGVPSRFSGSGSGTQFTLTISDLESDDAATYYCAGGYYNSGDLNPFGGGTEVVVKR
notes: also called Clone 7; CD137 clone 007
B3: CD137 antibody clone 008 (rabbit) (antibody, human IgG1, kappa, V domains shown)
VH: QSLEESGGRLVTPGTPLTLTCTASGFSLSSYDMSWVRQAPGKGLEYIGYISSSGNTYYASWAKSRFTISKTSTTVDLKITSPTTEDTATYFCAREGDYWDFNLWGPGTLVTVSS
VL: AQVLTQTPSSVSAAVGGTVTINCQASQSISNLLAWYQQKPGQRPRLLIYRASTLASGVPSRFKGSGSGTEFTLTISDLESEDAATYYCAGGFPGLDTGATFGGGTEAVVTR
notes: also called Clone 8; CD137 clone 008
B4: CD137 antibody clone 002 (rabbit) (antibody, human IgG1, kappa, V domains shown)
VH: QSVEESGGRLVTPGTPLTLTCTVSGFSLTYYAVTWVRQPPGKGLEWIGVIYDNGATAFATWAKGRFTMSKNSTTVALKVTSPTTEDTATYFCARSANNAWSTYSNLWGQGTLVTVSS
VL: DIVMTQTPSSVSAAVGGTVTINCQASEDISSYLSWYQQKLGQPPKLLIYKASTLESGVPSRFKGSGSGTEYTLTISDLESDDAATYYCQSYYSGSISGYGFVFGGGTGVVVKR
notes: also called Clone 2; CD137 clone 002
B5: CD137 antibody clone 006 (rabbit) (antibody, human IgG1, kappa, V domains shown)
VH: QSVEESGGRLVTPGTPLTLTCTVSGFSLSSYAMSWVRQAPGKGLEWIGIISTSGITYYASWAKGRFTISKTSTMVDLKITSPTTEDTATYFCARLNGFDDYVRYFDFWGLGTLVTVSS
VL: AIELTQTPSSVSAAVGGTVTINCQASESIASNLAWYQQKPGQPPKLLIYAASYLASGVPSRFKGSGSGTEYTLTISGVQSADAATYYCQSAFYVSSSDNAFGGGTEVVVKR
notes: also called Clone 6; CD137 clone 006
B6: CD137 antibody clone 012 (rabbit) (antibody, human IgG1, kappa, V domains shown)
VH: QSVEESGGRLVTPGTPLTLTCTVSGFSLSDYYMTWVRQAPGKGLEYIGIMSGSGSTYYASWAKGRFTISKTSSTTLELKITSPTTEDTAIYFCARDGDYAGWGYATGAFDPWGPGTLVTVSS
VL: AAVLTQTPSPVSAAVGGTVTISCQASQSVVGNSLLSWFQKKPGQPPKLLIYSASSLASGVPSRFKGSGSGTQFTLTISDLESDDAATYYCTGRYNSDTDTFVFGGGTEVVVKR
notes: also called Clone 12; CD137 clone 012
B7: CD137 antibody clone 001 (rabbit) (antibody, human IgG1, kappa, V domains shown)
VH: QSVEESGGRLVTPGTPLTLTCTVSGFSLSSYAVSWVRQAPGKGLEWIGVIWNNGATHYATWAKGRFTISKASTTVDLKVTSPTTEDTATYFCARSANDAWSTYSDLWGQGTLVTVSS
VL: DIVMTQTPASVEAAVGGTVTIKCQASQTITNYLSWYQQKPGQPPKLLIYKASTLTSGVSSRFKGSGSGTEFTLTISDLESDDAATYYCQNYYYGSSSGYGFVFGGGTEVVVKR
notes: also called Clone 1; CD137 clone 001

The first experiment concerns the target T1, Human CD137 shuffle 4 (amino acids …). The experiment in a line: flow cytometry on transfected HEK293T-17 cells. The procedure:
(§1) 3×10⁶ HEK293T-17 cells were seeded in T75 culture flasks (Greiner Bio-One, cat. no. 658175) in 20 mL RPMI 1640 GlutaMAX medium containing 10% FCS (Biochrom, cat. no. S 0115). After O/N incubation, cells were transiently […] with expression vectors encoding the shuffle constructs or the wild boar, African elephant or human CD137 downstream of a constitutively active human elongation factor-1 alpha (EF-1 alpha) promotor using TransIT®-LT1 Transfection Reagent, Mirus Bio (VWR International, cat. no. 731-0029), according to the manufacturer's instructions. The next day, cells were harvested using 1.5 mL Accutase (Sigma Aldrich, cat. no. A6964) (incubation at 37° C. for 5 min.) and flow cytometry was performed, essentially as described in Example 4, to measure surface expression of the shuffle constructs and the human, African elephant and wild boar CD137 and to measure binding of the antibody clones to the different shuffle constructs. To measure cell surface expression of the constructs, transduced cells were incubated with 1 μg/mL goat polyclonal anti-human CD137 (R&D Systems, cat. no. AF838) in FACS buffer (D-PBS supplemented with 5 mM EDTA [Sigma Aldrich, cat. no. 03690] and 5% (v/v) fetal bovine serum [FBS, Biochrom, cat. no. S 0115]) (4° C., 20 min.), followed by incubation with APC-labeled anti-goat IgG (H+L) (R&D Systems, cat. no. F0108) (4° C., 20 min.). Binding of the different CD137 antibody clones to cells expressing the shuffle constructs was measured by incubation of the transduced cells with 1 μg/mL of the antibody clones, followed by APC-labeled AffiniPure F(ab′)2 Fragment (1:50 final dilution; Jackson, cat. no. 109-136-127).
In the case of B1, the binding result is recorded as “no binding (tested: 1 µg/mL)”.
Still for that read-out and setting: for B2 the value was “no binding (tested: 1 µg/mL)”.
On to B3, for which the binding result was “no binding (tested: 1 µg/mL)”.

The target in a further experiment is T2, Human CD137 shuffle 5 (amino acids …). Description: flow cytometry on transfected HEK293T-17 cells. How it is done:
as §1
With B4, the binding result was “no binding (tested: 1 µg/mL)”.
Still for that read-out and setting: the same measure for B5: “no binding (tested: 1 µg/mL)”.

Another experiment has as its target T3, Human CD137 shuffle 1 (amino acids …). The experiment in a line: flow cytometry on transfected HEK293T-17 cells, 1 µg/mL antibody. How it is done:
as §1
(Flow cytometry measures light scatter and fluorescence of single cells or particles in a stream.)
As for B4, the binding result is reported as “binds”.
As for B1, the binding result is “binds”.
On the same count and under the same terms, for B6 the value was “binds”; for B5, “binds”; for B2, “binds”.
The same measure, in the same setting: the same measure for B7: “binds”.
Same read-out and setting: the same measure for B3: “binds”.

Another experiment deals with T4, Human CD137 shuffle 2 (amino acids …). The description is as above. The procedure: as §1
Consider B4, for which the binding result is reported as “binds”.
The same measure, in the same setting: for B1 the value was “binds”; for B6, “binds”; for B5, “binds”.
As for B2, the binding result is “binds”.
The same measure, in the same setting: the same measure for B7: “binds”; for B3: “binds”.

Another experiment deals with T5, Human CD137 shuffle 3 (amino acids …). The description is as above. The procedure: as §1
Consider B4, for which the binding result is “binds”.
Still for that read-out and setting: for B1 the value was “binds”.
On the same count and under the same terms, for B6 the value was “binds”; for B5, “binds”.
In the case of B2, the binding result is recorded as “binds”.
Turning to B7, the binding result is given as “binds”.
On to B3, for which the binding result is listed as “binds”.

Another experiment addresses T1, Human CD137 shuffle 4 (amino acids …). The description is as above. The procedure:
as §1
For the molecule B4, the binding result is “binds”.
Still for that read-out and setting: the same measure for B6: “binds”; for B5: “binds”.
Still for that read-out and setting: the same measure for B7: “binds”.

Another experiment deals with T2, Human CD137 shuffle 5 (amino acids …). The experiment is described as above. The procedure: as §1
For B1, the binding result is “binds”.
Same read-out and setting: for B6 the value was “binds”; for B2, “binds”; for B7, “binds”.
As to B3, the binding result was “binds”.

The next experiment concerns the target T6, Human CD137 (TNR9_Human) (human, UniProt Q07011 24-255).
T6 construct: Full-length human CD137 expressed on HEK293T-17, NF-kB/293/GFP-Luc or K562 cells, or native on T cells; also called hCD137 wt; 4-1BB
Description: flow cytometry, HEK293-T17 cells transiently transfected with human CD137, antibody at 1 µg/mL, APC-labeled F(ab')2 secondary. How it is done:
(§2) FIG. 4: Binding of CD137 antibody clones to CD137 shuffle constructs expressed on HEK293-T17 cells. HEK293-T17 cells were transfected with the CD137 shuffle constructs, and with human CD137 (hCD137 wt), African elephant of wild boar CD137, as indicated. Binding of the different CD137 antibody clones to these constructs expressed on HEK293-T17 cells was measured by flow cytometry. Staining with polyclonal anti-CD137 antibody is shown as a control.
as §1
Target sequence in this assay (Q07011 24-255): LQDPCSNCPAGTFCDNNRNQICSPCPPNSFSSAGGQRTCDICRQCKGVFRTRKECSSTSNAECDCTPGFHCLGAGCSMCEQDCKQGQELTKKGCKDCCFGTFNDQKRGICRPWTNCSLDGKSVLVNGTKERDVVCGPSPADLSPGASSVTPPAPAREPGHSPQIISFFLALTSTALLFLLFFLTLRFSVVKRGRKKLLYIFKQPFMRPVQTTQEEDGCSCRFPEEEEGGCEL
B4: the binding result is reported as “binds”.
B1: the binding result was “binds”.
For B5, the binding result was “binds”.
In the case of B7, the binding result is “binds”.

A further experiment has as its target T6, Human CD137 (TNR9_Human). Description: flow cytometry, HEK293-T17 cells transiently transfected with human CD137, antibody at 1 µg/mL, APC-labeled F(ab')2 secondary [cont.]. How it is done: as §2, §1
As to B6, the binding result is reported as “binds”.
On the same count and under the same terms, the same measure for B2: “binds”; for B3: “binds”.
